The assay addresses HBV表面抗原蛋白 (HBsAg) (Hepatitis B virus). Kind of assay: SPR, Biacore 3000; 7E5 captured by AHC on a CM5 chip, HBsAg as analyte in 2-fold dilutions from 40 nM to 0 nM. A general note: In SPR one partner is held on a chip, and binding of the other changes the refractive index at the surface.

B1: 抗HBsAg单克隆抗体7E5 (antibody, V domains shown)
VH: EVQLQQSGPELVKPGASVKMSCKASGYTFTARGYNWVRQSHGKSLEWIGGINCRPTAMSPEDLVKDKATLTVDKSSNTVYMEFRSLTLEDSAIYFCARRECPINQGDYWGQGTIFTVSS
VL: EIVLTQSPALMAASPGEKVTITCGCARNTIWNNVGWYQQKSETSPKPWIYWASLFGKGVPVRFSGSGSGTSYSLTISSMEAEDAATYYCQDIQENWTPFGAGTKLELK
The Kd is the free concentration of one partner at which half of the binding sites on the other are occupied at equilibrium, for simple one-to-one binding. Read a high Kd as weaker binding. By koff is commonly meant the rate constant with which the complex falls apart. A higher koff goes with a short-lived complex. The kon is the second-order rate constant of association. Read a high kon as faster complex formation. Turning to B1, the Kd was determined as 21.5 nM, the koff was 0.000445 s⁻¹ and the kon was 20700 M⁻¹ s⁻¹.

Source of the values: patent publication CN113234143A.
